B1: IL1RL1-39 (Fc fusion, not shown: a dimerising Fc or GST)
VHH: EVQLVESGGGLVQPGGSLRLSCAASGGTFSVYAMGWFRQAPGKEREAVASISTSGGSTYYADSVKGRFTISADNSKNTAYLQMNSLKPEDTAVYYCAIGGTLYDRRRFEWGQGTLVTVSS
notes: VHH-Fc on IgG2 Fc
B2: IL1RL1-25 (Fc fusion, not shown: a dimerising Fc or GST)
VHH: EVQLVESGGGLVQPGGSLRLSCAASGGTFNGRAMGWFRQAPGKEREGVATINSGGGTNYADSVKGRFTISADNSKNTAYLQMNSLKPEDTAVYYCALRRLSPPPLLDWGQGTLVTVSS
notes: VHH-Fc on IgG2 Fc
B3: IL1RL1-45 (Fc fusion, not shown: a dimerising Fc or GST)
VHH: EVQLVESGGGLVQPGGSLRLSCAASGRTLSSYTMGWFRQAPGKEREFVAGIWSGGYTHYADSVKGRFTISADNSKNTAYLQMNSLKPEDTAVYYCAAVSSNSETFDWGQGTLVTVSS
notes: VHH-Fc on IgG2 Fc
B4: IL1RL1-83 (Fc fusion, not shown: a dimerising Fc or GST)
VHH: B3 VHH with T28S, L29I, S31D
notes: VHH-Fc on IgG2 Fc
B5: IL1RL1-26 (Fc fusion, not shown: a dimerising Fc or GST)
VHH: EVQLVESGGGLVQPGGSLRLSCAASGLTTVYTMGWFRQAPGKERESVASISWTGGTTYYADSVKGRFTISADNSKNTAYLQMNSLKPEDTAVYYCAAIAHEEGVYRWDWGQGTLVTVSS
notes: VHH-Fc on IgG2 Fc
B6: IL1RL1-22 (Fc fusion, not shown: a dimerising Fc or GST)
VHH: EVQLVESGGGLVQPGGSLRLSCAASGRTSNIYAMGWFRQAPGKEREWVASISTSGSTITPYADSVKGRFTISADNSKNTAYLQMNSLKPEDTAVYYCAIAHGSSTYNWGQGTLVTVSS
B7: IL1RL1-46 (Fc fusion, not shown: a dimerising Fc or GST)
VHH: EVQLVESGGGLVQPGGSLRLSCAASGFTFSDIAMGWFRQAPGKEREFVAAINWSGGSTKYADSVKGRFTISADNSKNTAYLQMNSLKPEDTAVYYCAYSGIGTDWGQGTLVTVSS
notes: VHH-Fc on IgG2 Fc
B8: IL1RL1-49 (Fc fusion, not shown: a dimerising Fc or GST)
VHH: EVQLVESGGGLVQPGGSLRLSCAASGRTVTMGWFRQAPGKEREFVAGINWESGSTDYADSVKGRFTISADNSKNTAYLQMNSLKPEDTAVYYCAALALGTDQSSTFDWGQGTLVTVSS
notes: VHH-Fc on IgG2 Fc
B9: IL1RL1-54 (Fc fusion, not shown: a dimerising Fc or GST)
VHH: EVQLVESGGGLVQPGGSLRLSCAASGNIPPINAMGWFRQAPGKEREWVASISTSGSTITPYADSVKGRFTISADNSKNTAYLQMNSLKPEDTAVYYCAARSGWSGQYDWGQGTLVTVSS
notes: VHH-Fc on IgG2 Fc
B10: IL1RL1-27 (Fc fusion, not shown: a dimerising Fc or GST)
VHH: EVQLVESGGGLVQPGGSLRLSCAASGGTISTYAIGWFRQAPGKEREGVAAISPGNNTHYADSVKGRFTISADNSKNTAYLQMNSLKPEDTAVYYCAARPVRVDDISLPVGFDWGQGTLVTVSS
notes: VHH-Fc on IgG2 Fc
B11: IL1RL1-20 (Fc fusion, not shown: a dimerising Fc or GST)
VHH: EVQLVESGGGLVQPGGSLRLSCAASGFSLDDRVMGWFRQAPGKEREFVAGITLGGSTSYADSVKGRFTISADNSKNTAYLQMNSLKPEDTAVYYCAAAPVPWGTRPSLLTYDWGQGTLVTVSS
notes: VHH-Fc on IgG2 Fc
B12: IL1RL1-19 (Fc fusion, not shown: a dimerising Fc or GST)
VHH: EVQLVESGGGLVQPGGSLRLSCAASGRTDSTASMGWFRQAPGKEREEVAAISWSGGRTYYADSVKGRFTISADNSKNTAYLQMNSLKPEDTAVYYCARLAFQGNTVFDLWGQGTLVTVSS
notes: VHH-Fc on IgG2 Fc
B13: IL1RL1-92 (Fc fusion, not shown: a dimerising Fc or GST)
VHH: B12 VHH with D29H
notes: VHH-Fc on IgG2 Fc
B14: IL1RL1-47 (Fc fusion, not shown: a dimerising Fc or GST)
VHH: EVQLVESGGGLVQPGGSLRLSCAASGRTFSMGWFRQAPGKEREWVASISTSGSTITPYADSVKGRFTISADNSKNTAYLQMNSLKPEDTAVYYCAAQGSLYDDYDGLPIKYDWGQGTLVTVSS
notes: VHH-Fc on IgG2 Fc
B15: IL1RL1-57 (Fc fusion, not shown: a dimerising Fc or GST)
VHH: EVQLVESGGGLVQPGGSLRLSCAASGDIGSINSMGWFRQAPGKEREFLASVSWGFGSTYYADSVKGRFTISADNSKNTAYLQMNSLKPEDTAVYYCAVNRLLYYSSGYYQTSVDWGQGTLVTVSS
notes: VHH-Fc on IgG2 Fc
B16: IL1RL1-24 (Fc fusion, not shown: a dimerising Fc or GST)
VHH: EVQLVESGGGLVQPGGSLRLSCAASGGTAYAMGWFRQAPGKEREWVASISTSGSTITPYADSVKGRFTISADNSKNTAYLQMNSLKPEDTAVYYCAAASRSGSGYDWGQGTLVTVSS
notes: VHH-Fc on IgG2 Fc
B17: IL1RL1-59 (Fc fusion, not shown: a dimerising Fc or GST)
VHH: B16 VHH with A98N, S99V, R100G, S101V, G102T, S103G, G104S, D106E
notes: VHH-Fc on IgG2 Fc
B18: IL1RL1-21 (Fc fusion, not shown: a dimerising Fc or GST)
VHH: EVQLVESGGGLVQPGGSLRLSCAASGTITSAVFMGWFRQAPGKEREFVAGIIGSGGATYYADSVKGRFTISADNSKNTAYLQMNSLKPEDTAVYYCAASRYARERDVHAYDWGQGTLVTVSS
notes: VHH-Fc on IgG2 Fc
B19: IL1RL1-44 (Fc fusion, not shown: a dimerising Fc or GST)
VHH: EVQLVESGGGLVQPGGSLRLSCAASGDYYAMGWFRQAPGKEREWVSSIGIAGTPTFYADSVKGRFTISADNSKNTAYLQMNSLKPEDTAVYYCAANVGVTGSYEWGQGTLVTVSS
notes: VHH-Fc on IgG2 Fc
B20: IL1RL1-23 (Fc fusion, not shown: a dimerising Fc or GST)
VHH: EVQLVESGGGLVQPGGSLRLSCAASGRTFSTASMGWFRQAPGKEREWVASISTSGSTITPYADSVKGRFTISADNSKNTAYLQMNSLKPEDTAVYYCAVVDLLRGKLWGQGTLVTVSS
notes: VHH-Fc on IgG2 Fc
B21: IL1RL1-40 (Fc fusion, not shown: a dimerising Fc or GST)
VHH: EVQLVESGGGLVQPGGSLRLSCAASGRTFSDYVMGWFRQAPGKEREIVAAIAWTGTTDYADSVKGRFTISADNSKNTAYLQMNSLKPEDTAVYYCAARIRGKVTVDNFDYAWGQGTLVTVSS
notes: VHH-Fc on IgG2 Fc

Substitutions are numbered along the chain they refer to.

The term Kd denotes the constant that tells how readily two partners part at equilibrium. A higher Kd goes with a looser complex. The term koff denotes the first-order rate constant of dissociation. A high value points to a short-lived complex. One may read the kon as the rate constant with which the complex forms.

The target of one assay is T1, IL1RL1 over-expressed on Expi293 cells (UniProt Q01638 19-556, limits assumed).
T1 construct: whole, on cells; Target of the flow cytometry MFI ratio (over-expressing cells over parent cells); also called cytokine over-expressing Expi293 cells
T1 sequence (looked up): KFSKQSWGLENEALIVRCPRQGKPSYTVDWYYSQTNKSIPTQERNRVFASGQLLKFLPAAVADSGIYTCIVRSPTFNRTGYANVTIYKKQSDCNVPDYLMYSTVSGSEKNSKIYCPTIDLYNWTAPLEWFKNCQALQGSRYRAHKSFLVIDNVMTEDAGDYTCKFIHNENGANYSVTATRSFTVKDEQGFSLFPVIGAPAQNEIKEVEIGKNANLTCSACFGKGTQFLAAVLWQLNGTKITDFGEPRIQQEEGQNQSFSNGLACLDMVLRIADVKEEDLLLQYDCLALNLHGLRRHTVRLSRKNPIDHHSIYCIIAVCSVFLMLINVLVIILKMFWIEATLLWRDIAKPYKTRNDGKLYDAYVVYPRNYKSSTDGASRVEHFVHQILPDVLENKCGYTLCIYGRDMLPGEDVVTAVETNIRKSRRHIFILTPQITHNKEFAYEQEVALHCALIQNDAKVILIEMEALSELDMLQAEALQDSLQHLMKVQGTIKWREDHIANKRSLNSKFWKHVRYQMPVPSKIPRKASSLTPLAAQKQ
Kind of assay: flow cytometry, 100 nM antibody, over-expressing Expi293 / parent cells.
Method: All incubations and washes were in buffer containing PBS+1% BSA. MFI Ratio is defined by the mean fluorescence intensity (MFI) of the cytokine over-expressing Expi293 cell over the Expi293 parent cell. […] EC50 was calculated in GraphPad Prism.
In the case of B1, the “100 nM FACS (MFI Ratio)” value was 267 MFI ratio.
In the case of B2, the “100 nM FACS (MFI Ratio)” value worked out at 69.5 MFI ratio.
On the same count and under the same terms, the same measure for B3: 704 MFI ratio; for B4: 628 MFI ratio; for B5: 310 MFI ratio.
The same measure, in the same setting: to B6 belongs 294 MFI ratio; to B7, 300 MFI ratio.
For B8, the “100 nM FACS (MFI Ratio)” value is 248 MFI ratio.
Still for that read-out and setting: the same measure for B9: 500 MFI ratio.
On the same count and under the same terms, to B10 belongs 450 MFI ratio; to B11, 396 MFI ratio; to B12, 486 MFI ratio.
As for B13, the “100 nM FACS (MFI Ratio)” value is 484 MFI ratio.
On the same count and under the same terms, to B14 belongs 467 MFI ratio; to B15, 282 MFI ratio.
The same measure, in the same setting: the same measure for B16: 438 MFI ratio.
With B17, the “100 nM FACS (MFI Ratio)” value amounted to 374 MFI ratio.
On the same count and under the same terms, to B18 belongs 521 MFI ratio; to B19, 448 MFI ratio.
Turning to B20, the “100 nM FACS (MFI Ratio)” value came out at 526 MFI ratio.
As for B21, the “100 nM FACS (MFI Ratio)” value came to 415 MFI ratio.

For another assay, the target named is T2, IL1RL1 (UniProt Q01638 19-328, limits assumed).
T2 construct: SPR analyte
T2 sequence (looked up): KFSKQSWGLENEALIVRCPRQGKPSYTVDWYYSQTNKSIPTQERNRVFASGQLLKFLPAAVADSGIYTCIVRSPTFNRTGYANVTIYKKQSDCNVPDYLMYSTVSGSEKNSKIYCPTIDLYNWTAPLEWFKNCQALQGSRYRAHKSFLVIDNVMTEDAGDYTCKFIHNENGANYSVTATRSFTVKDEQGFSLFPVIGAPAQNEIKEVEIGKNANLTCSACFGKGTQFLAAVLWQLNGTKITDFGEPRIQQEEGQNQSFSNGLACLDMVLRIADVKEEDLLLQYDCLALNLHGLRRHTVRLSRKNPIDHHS
Kind of assay: SPR (Carterra LSA), antibody amine-coupled, 1:1 model.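 Note: HC30M sensor chip at 25 °C in HBS-TE, analyte at rising concentrations in buffer containing 0.5 mg/mL BSA, 5 min association then 15 min dissociation.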
Method: SPR experiments were performed on a Carterra LSA SPR biosensor equipped with a HC30M chip at 25° C. in HBS-TE. Antibodies were diluted to 10 μg/mL and amine-coupled to the sensor chip by EDC/NHS activation, followed by ethanolamine HCl quenching. Increasing concentrations of analyte were flowed over the sensor chip in HBS-TE with 0.5 mg/mL BSA with 5-minute association and 15-minute dissociation. Following each injection cycle the surface was regenerated with 2× 30-second injections of IgG elution buffer (Thermo). Data were analyzed in Carterra's Kinetics Tool software with 1:1 binding model.
With B1, the Kd worked out at 0.688 nM, the koff worked out at 5.5e-05 s⁻¹ and the on-rate constant (kon) is 80000 M⁻¹ s⁻¹.
For B2 the same measures were 1.47 nM, 0.000392 s⁻¹ and 267000 M⁻¹ s⁻¹.
Take B3: the dissociation constant Kd stood at 1.19 nM, the off-rate constant (koff) was 0.000326 s⁻¹ and the on-rate constant (kon) is 275000 M⁻¹ s⁻¹.
B4 came in with a Kd of 1.2 nM, a koff of 0.00016 s⁻¹ and a kon of 134000 M⁻¹ s⁻¹.
In the case of B5, the affinity, expressed as Kd, was 3.12 nM; the koff was 0.000618 s⁻¹; the on-rate constant (kon) is 198000 M⁻¹ s⁻¹.
As to B6, the dissociation constant Kd amounted to 1.36 nM, the dissociation rate constant (koff) was 0.000243 s⁻¹ and the kon came to 179000 M⁻¹ s⁻¹.
For B7 the same measures were 3.06 nM, 0.000553 s⁻¹ and 181000 M⁻¹ s⁻¹.
The molecule B8 registered a Kd of 2.42 nM, a koff of 0.000673 s⁻¹ and an on-rate constant (kon) of 277000 M⁻¹ s⁻¹.
For B9, the dissociation constant Kd came to 0.516 nM, the koff was determined as 9.06e-05 s⁻¹ and the association rate constant (kon) came out at 176000 M⁻¹ s⁻¹.
For B10 the same measures were 3.7 nM, 0.000372 s⁻¹ and 101000 M⁻¹ s⁻¹.
The molecule B11 yielded a Kd of 0.302 nM, an off-rate (koff) of 2.92e-05 s⁻¹ and a kon of 96600 M⁻¹ s⁻¹.
For B12 the same measures were 0.104 nM, 1.29e-05 s⁻¹ and 123000 M⁻¹ s⁻¹.
For B13 the same measures were 4.4 nM, 0.000619 s⁻¹ and 141000 M⁻¹ s⁻¹.
For B14 the same measures were 4.73 nM, 0.00031 s⁻¹ and 65600 M⁻¹ s⁻¹.
B15 registered a Kd of 1.73 nM, a koff of 0.000364 s⁻¹ and a kon of 211000 M⁻¹ s⁻¹.
In the same order, the values of B16 are 1.62 nM, 0.000232 s⁻¹ and 143000 M⁻¹ s⁻¹.
For B17 the same measures were at most 0.0748 nM, at most 1e-05 s⁻¹ and 134000 M⁻¹ s⁻¹.
Regarding B18, the affinity, expressed as Kd, was 0.409 nM; the dissociation rate constant (koff) is 5.04e-05 s⁻¹; the on-rate constant (kon) was determined as 123000 M⁻¹ s⁻¹.
In the same order, the values of B19 are at most 0.016 nM, at most 1e-05 s⁻¹ and 626000 M⁻¹ s⁻¹.
For B20 the same measures were at most 0.188 nM, at most 1e-05 s⁻¹ and 53100 M⁻¹ s⁻¹.
For B21 the same measures were 7.31 nM, 0.00116 s⁻¹ and 159000 M⁻¹ s⁻¹.

For the origin of these results see patent US20230265179A1 (TWIST BIOSCIENCE, published 2023).
